From IntAct's records for PubMed 27487388

B1: Microsomal triglyceride transfer protein large subunit (Homo sapiens), P55157 (parent)
chain: MILLAVLFLCFISSYSASVKGHTTGLSLNNDRLYKLTYSTEVLLDRGKGKLQDSVGYRISSNVDVALLWRNPDGDDDQLIQITMKDVNVENVNQQRGEKSIFKGKSPSKIMGKENLEALQRPTLLHLIHGKVKEFYSYQNEAVAIENIKRGLASLFQTQLSSGTTNEVDISGNCKVTYQAHQDKVIKIKALDSCKIARSGFTTPNQVLGVSSKATSVTTYKIEDSFVIAVLAEETHNFGLNFLQTIKGKIVSKQKLELKTTEAGPRLMSGKQAAAIIKAVDSKYTAIPIVGQVFQSHCKGCPSLSELWRSTRKYLQPDNLSKAEAVRNFLAFIQHLRTAKKEEILQILKMENKEVLPQLVDAVTSAQTSDSLEAILDFLDFKSDSSIILQERFLYACGFASHPNEELLRALISKFKGSIGSSDIRETVMIITGTLVRKLCQNEGCKLKAVVEAKKLILGGLEKAEKKEDTRMYLLALKNALLPEGIPSLLKYAEAGEGPISHLATTALQRYDLPFITDEVKKTLNRIYHQNRKVHEKTVRTAAAAIILNNNPSYMDVKNILLSIGELPQEMNKYMLAIVQDILRFEMPASKIVRRVLKEMVAHNYDRFSRSGSSSAYTGYIERSPRSASTYSLDILYSGSGILRRSNLNIFQYIGKAGLHGSQVVIEAQGLEALIAATPDEGEENLDSYAGMSAILFDVQLRPVTFFNGYSDLMSKMLSASGDPISVVKGLILLIDHSQELQLQSGLKANIEVQGGLAIDISGAMEFSLWYRESKTRVKNRVTVVITTDITVDSSFVKAGLETSTETEAGLEFISTVQFSQYPFLVCMQMDKDEAPFRQFEKKYERLSTGRGYVSQKRKESVLAGCEFPLHQENSEMCKVVFAPQPDSTSSGWF
B2: Microsomal triglyceride transfer protein large subunit (Homo sapiens), P55157 (parent)
chain: B1 chain
partner: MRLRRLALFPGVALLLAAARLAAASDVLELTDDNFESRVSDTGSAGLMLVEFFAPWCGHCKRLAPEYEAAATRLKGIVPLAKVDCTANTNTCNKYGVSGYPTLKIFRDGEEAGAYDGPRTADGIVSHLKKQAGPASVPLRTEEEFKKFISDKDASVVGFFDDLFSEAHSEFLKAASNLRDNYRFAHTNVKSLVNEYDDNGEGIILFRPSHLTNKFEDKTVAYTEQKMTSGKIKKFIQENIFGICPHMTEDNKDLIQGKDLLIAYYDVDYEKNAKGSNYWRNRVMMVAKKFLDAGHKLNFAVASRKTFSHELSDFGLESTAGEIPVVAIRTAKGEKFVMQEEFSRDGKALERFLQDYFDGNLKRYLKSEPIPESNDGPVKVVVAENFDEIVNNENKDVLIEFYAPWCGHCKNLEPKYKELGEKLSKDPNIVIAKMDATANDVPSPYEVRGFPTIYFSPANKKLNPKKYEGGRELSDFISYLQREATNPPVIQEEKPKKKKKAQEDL

Variants of: B1
Conditions: with apob_human APOB

Variant	effect of a mutation on the interaction
D361Y	with no effect
D361E	with no effect

Variants of: B1
Conditions: with apob_human APOB
Remark: another data set of the same source

Variant	effect of a mutation on the interaction
D361E	increasing interaction strength

Variants of: B2
Conditions: with pdia3_chlae PDIA3, Q4VIT4

Variant	effect of a mutation on the interaction
D361Y	disrupting interaction strength

Variants of: B2
Conditions: with pdia3_chlae PDIA3, Q4VIT4
Remark: another data set of the same source

Variant	effect of a mutation on the interaction
D361Y	decreasing interaction strength
D361E	with no effect
